What follows are binders tested against Taxol-stabilized microtubules polymerised from purified porcine brain tubulin (porcine) (UniProt P02550) (assay: co-sedimentation; tubulin co-sedimentation: taxol-stabilized MTs (varied, α/β-tubulin heterodimer molarity) with 1 µM purified N-clamp, 0.25 mg/ml BSA, BRB80-MT buffer (80 mM PIPES, 1 mM MgCl2, 1 mM EGTA, 12.5% glycerol, pH 6.8), 20 min at room temperature, 200,000 g 10 min 27 °C; SDS-PAGE densitometry of pellet; apparent Kd from a quadratic fit).

Row | Kd | Binder
1 | 25.5 µM | D. melanogaster augmin N-clamp with Dgt6^3A-mut (K82A, R88A, K96A) (complex) chain 1: MSDAVDKMLAGMAANRQTMNRQLAKIDEIMERSNNTLLHIESNSKAFSQNVALSETQKMYNLRPEAEMTLSKILENFKLLMSSSDQREETYSALEGCLAYRHRVEHLGSSVRKLVALYDTVGQMKNSQEEQYASEDSP chain 2: MDRTIIAPWKAEEKEQSEKLHRKLQGLALVHPLPDELRKLIAWDMFLKPNQVAFVHVMHYLFRLLDPAEFKRRFFWPITDKASEANFASSTVEYLAHLNEKHQLHWANIKSYLVVMPGGMRFINFLLEFVGFVIQELIKQREKSLGLEAGTPNVSAKVMARQNAVMKEYASSYVVNLEENTALLRDKTQKIRRLMADLSADMGVPEEQLADDGFLDEFEATAALGVERVITQPTERKFDLEASLCGLKEAIDLFQVKQAENNQSKEAVEKALRGMRVLFDCDAVTEGDFYDPLGASKMDALLNGFNRISGTIAEQLDANDHYNESNAFVTTDLQALRVELSQSEVQLNNLLKKLNEPSKKDKGSANASGSARVQTLQPATPRFESVISSKFVSTPPIRIDMGGGGGRNAPVRLALQDDFNGKQFDALSNSLLAPAPPRSARKLKALDQSTGIDLNGTLNRSKINDPMQMLRTIHKNTSKVKAAPQANLSSLGSKWKQMQASFGFDEAPVPGAAVISPQTSPTDPSDPFTPLSGSECTRIERIPRTSENNTSLIAKSAAVIKVLEVSRNVLNLSTSPSGRLDALVPHTESHQQDVAPRLQLNDRTINDSLQLDPDFNIENDKNAFNVSHKFDFDQIGGEDDLQNISDSVLKDIIF chain 3: METNVDFSSISSKLYRKYAQHVRNLKDVCVSKTVMKPGAFFDSLQQMMEEEAAATTPPRDLSSVADYAELFKTLEEYPANLQKMPKKRELQRTNSTLLRGADESVAMGINTSNVSLSLTRLEEQRSAVDVYNDFKGFQRKLAKIYDEAAALDTTESIYKQKLTQLHGFAQQLEKLMPTGGESPPDAFTSEQQEKLLTIAANMEQLNYLRSNSLQLPNPNEILATGSLAARLEMFVEVLTYTLLQVSSYNMAMI chain 4: METPPTPTTTTPPSLTTEGTMDDIQYLLHLEAMRRFQEDSRNVKRQVEEQVRIWLDAKCEYQRDFGRLARLLKCGALQAAVDAHRVSDVNQVDQAAKDIASLRSKLGSDLRPAILDSNDVKQCLEHLNTTHKPRLNLCRQQREFAQNQEALRSLRTAVDGLENGMEMGMIQAMDRLVEDLLPPRETNN
2 | 1 µM | D. melanogaster augmin N-clamp with Msd5^Δ81–93 (loop deletion) (complex) chain 1: MSDAVDKMLAGMAANRQTMNRQLAKIDEIMERSNNTLLHIESNSKAFSQNVALSETQKMYNLRPEAEMTLSKILENFKLLMSSSDQREETYSALEGCLAYRHRVEHLGSSVRKLVALYDTVGQMKNSQEEQYASEDSP chain 2: MDRTIIAPWKAEEKEQSEKLHRKLQGLALVHPLPDELRKLIAWDMFLKPNQVAFVHVMHYLFRLLDPAEFKRRFFWPITDKKSEANFRSSTVEYLKHLNEKHQLHWANIKSYLVVMPGGMRFINFLLEFVGFVIQELIKQREKSLGLEAGTPNVSAKVMARQNAVMKEYASSYVVNLEENTALLRDKTQKIRRLMADLSADMGVPEEQLADDGFLDEFEATAALGVERVITQPTERKFDLEASLCGLKEAIDLFQVKQAENNQSKEAVEKALRGMRVLFDCDAVTEGDFYDPLGASKMDALLNGFNRISGTIAEQLDANDHYNESNAFVTTDLQALRVELSQSEVQLNNLLKKLNEPSKKDKGSANASGSARVQTLQPATPRFESVISSKFVSTPPIRIDMGGGGGRNAPVRLALQDDFNGKQFDALSNSLLAPAPPRSARKLKALDQSTGIDLNGTLNRSKINDPMQMLRTIHKNTSKVKAAPQANLSSLGSKWKQMQASFGFDEAPVPGAAVISPQTSPTDPSDPFTPLSGSECTRIERIPRTSENNTSLIAKSAAVIKVLEVSRNVLNLSTSPSGRLDALVPHTESHQQDVAPRLQLNDRTINDSLQLDPDFNIENDKNAFNVSHKFDFDQIGGEDDLQNISDSVLKDIIF chain 3: METNVDFSSISSKLYRKYAQHVRNLKDVCVSKTVMKPGAFFDSLQQMMEEEAAATTPPRDLSSVADYAELFKTLEEYPANNSTLLRGADESVAMGINTSNVSLSLTRLEEQRSAVDVYNDFKGFQRKLAKIYDEAAALDTTESIYKQKLTQLHGFAQQLEKLMPTGGESPPDAFTSEQQEKLLTIAANMEQLNYLRSNSLQLPNPNEILATGSLAARLEMFVEVLTYTLLQVSSYNMAMI chain 4: METPPTPTTTTPPSLTTEGTMDDIQYLLHLEAMRRFQEDSRNVKRQVEEQVRIWLDAKCEYQRDFGRLARLLKCGALQAAVDAHRVSDVNQVDQAAKDIASLRSKLGSDLRPAILDSNDVKQCLEHLNTTHKPRLNLCRQQREFAQNQEALRSLRTAVDGLENGMEMGMIQAMDRLVEDLLPPRETNN
3 | 0.4 µM | D. melanogaster augmin N-clamp, wild type (Msd1, Dgt6, Msd5-EGFP-HIS8, Dgt4-HIS8) (complex) chain 1: MSDAVDKMLAGMAANRQTMNRQLAKIDEIMERSNNTLLHIESNSKAFSQNVALSETQKMYNLRPEAEMTLSKILENFKLLMSSSDQREETYSALEGCLAYRHRVEHLGSSVRKLVALYDTVGQMKNSQEEQYASEDSP chain 2: MDRTIIAPWKAEEKEQSEKLHRKLQGLALVHPLPDELRKLIAWDMFLKPNQVAFVHVMHYLFRLLDPAEFKRRFFWPITDKKSEANFRSSTVEYLKHLNEKHQLHWANIKSYLVVMPGGMRFINFLLEFVGFVIQELIKQREKSLGLEAGTPNVSAKVMARQNAVMKEYASSYVVNLEENTALLRDKTQKIRRLMADLSADMGVPEEQLADDGFLDEFEATAALGVERVITQPTERKFDLEASLCGLKEAIDLFQVKQAENNQSKEAVEKALRGMRVLFDCDAVTEGDFYDPLGASKMDALLNGFNRISGTIAEQLDANDHYNESNAFVTTDLQALRVELSQSEVQLNNLLKKLNEPSKKDKGSANASGSARVQTLQPATPRFESVISSKFVSTPPIRIDMGGGGGRNAPVRLALQDDFNGKQFDALSNSLLAPAPPRSARKLKALDQSTGIDLNGTLNRSKINDPMQMLRTIHKNTSKVKAAPQANLSSLGSKWKQMQASFGFDEAPVPGAAVISPQTSPTDPSDPFTPLSGSECTRIERIPRTSENNTSLIAKSAAVIKVLEVSRNVLNLSTSPSGRLDALVPHTESHQQDVAPRLQLNDRTINDSLQLDPDFNIENDKNAFNVSHKFDFDQIGGEDDLQNISDSVLKDIIF chain 3: METNVDFSSISSKLYRKYAQHVRNLKDVCVSKTVMKPGAFFDSLQQMMEEEAAATTPPRDLSSVADYAELFKTLEEYPANLQKMPKKRELQRTNSTLLRGADESVAMGINTSNVSLSLTRLEEQRSAVDVYNDFKGFQRKLAKIYDEAAALDTTESIYKQKLTQLHGFAQQLEKLMPTGGESPPDAFTSEQQEKLLTIAANMEQLNYLRSNSLQLPNPNEILATGSLAARLEMFVEVLTYTLLQVSSYNMAMI chain 4: METPPTPTTTTPPSLTTEGTMDDIQYLLHLEAMRRFQEDSRNVKRQVEEQVRIWLDAKCEYQRDFGRLARLLKCGALQAAVDAHRVSDVNQVDQAAKDIASLRSKLGSDLRPAILDSNDVKQCLEHLNTTHKPRLNLCRQQREFAQNQEALRSLRTAVDGLENGMEMGMIQAMDRLVEDLLPPRETNN

Reference: article PMC12373997
